As a reminder, the EC50 is the concentration that produces a half-maximal response.

Consider four substances from patent US20250368729A1.

Assay [1] concerns the target KEN hATTR amyloid extract (human) (UniProt P02766). Description: pulldown, labelled antibody.
In assay [2] the target is SNO hereditary (h) ATTR amyloid extract (human) (UniProt P02766). Description: pulldown, labelled antibody.
Assay [3] concerns the target KEN hATTR amyloid extract (human) (UniProt P02766). Description: EuLISA, substrate coated on plate.
In assay [4] the target is Per125 wtATTR amyloid extract (human) (UniProt P02766). Description: EuLISA, substrate coated on plate.
The target of assay [5] is SHI ALλ liver amyloid extract. The experiment in a line: EuLISA, substrate coated on plate.
Assay [6] has as its target TAL ALκ liver amyloid extract. The experiment in a line: EuLISA, substrate coated on plate.
The target in assay [7] is synthetic amyloid-like fibrils of recombinant amyloidogenic λ6 variable domain protein (rVλ6Wil). Description: EuLISA, substrate coated on plate.
Assay [8] has as its target Aβ(1-40) amyloid-like fibrils (UniProt P05067). Description: pulldown of 125I-labelled antibody with the substrate pellet.
Assay [9] deals with hIAPP fibril (UniProt P10997). The assay is described as above.
Sequence of hIAPP fibril (P10997 34-70 limits assumed): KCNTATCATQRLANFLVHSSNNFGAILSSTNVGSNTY

Sequence of Aβ(1-40) amyloid-like fibrils (P05067 672-711 limits assumed): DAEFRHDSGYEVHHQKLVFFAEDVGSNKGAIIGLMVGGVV

“murine Ig-peptide fusion Igp5 (murine 11-1F4 with peptide p5 fused to the N-terminus of the light chain) (antibody)” yielded a percent bound in assay [1] of 15%. The substance also registered a percent bound in assay [2] of 12%. Besides, in assay [3], the EC50 was 3.56 nM, the LogEC50 is 8.45 -log(M) and the Max (maximal level of binding) came out at 19.9.
For hIgG1 control (antibody), the LogEC50 was 9.06 -log(M) in assay [3]; 7.92 -log(M) in assay [4]; 7.88 -log(M) in [5]; 3 -log(M) in assay [6]; 5.89 -log(M) in [7]. Also, the Max (maximal level of binding) is -0.8 in [3]; 8.38 in [4]; 2.5 in [5]; 2220 in assay [6]; 39.3 in assay [7]. In [7], the EC50 came out at 1280 nM.
The substance murine antibody m11-1F4 gave a LogEC50 in assay [3] of 2.39. The same substance gave a Max (maximal level of binding) in assay [3] of 294000. Moreover, the bound to substrate (pulldown) in assay [8] stood at 4.6%; in assay [9], 5.1%.
In [3], chimeric (c) 11-1F4 (antibody) gave a LogEC50 of -1.36 and a Max (maximal level of binding) of 19700.
